Data reported in article PMC12397275 (Nature Communications, 2025).

Target: T1, 670-689 VP3 peptide (rhesus rotavirus RRV strain)
T1 construct: source: synthetic peptide (Gencript)
Experiment: BLI
Conditions: both partners purified

B1: PFDN3 protein (His tag removed) (natural protein)
chain: MAAVKDSCGKGEMATGNGRRLHLGIPEAVFVEDVDSFMKQPGNETADTVLKKLDEQYQKYKFMELNLAQKKRRLKGQIPEIKQTLEILKYMQKKKESTNSMETRFLLADNLYCKASVPPTDKVCLWLGANVMLEYDIDEAQALLEKNLSTATKNLDSLEEDLDFLRDQFTTTEVNMARVYNWDVKRRNKDDSTKNKA
notes: also called non-Tagged PFDN3; human PFDN3; source: bought: Abcam (ab139201), His tag cleaved with thrombin
binding result: binds
